Data as given in the supplement of paper PMC10567573.

B1: FANCE (parent)
chain: AQVLMLGQILELPWKEETFLVLQS
B2: VTI1B (parent)
chain: ANETLAEMEEELRYAPLSFRNPMM

Variants of: B1
Test: protein stability index of a GFP-peptide fusion (GPS, HEK-293T) (PSI 1-6); higher = more stable
Details: c terminus: a fixed tail appended
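Further: lentivirally expressed fusions sorted by FACS into six bins by GFP to DsRed ratio, PSI derived from sequencing read proportions per bin multiplied by bin number.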

Variant	protein stability index
E16R	1.97
E16V	3.46
E16Q	3.56
E16M	2.5
E16K	2.78
E16G	2.03
E16A	3.98
E16D	1.67
E16N	2.23
E16Y	3.33
E16F	4.03
E16L	3.01
K15P	4.32
K15H	3.52
K15Y	5.17
K15M	2.91
K15S	2.58
K15L	2.82
K15W	2.14
K15E	2.32
K15F	2.52
K15Q	1.47
K15T	3.16
K15D	2.01
K15N	1.94
K15A	2.06
K15V	5.16

Variants of: B2
Test: as above
Details: c terminus: a fixed tail appended

Variant	protein stability index
N2P	2.52
N2Q	2.27
N2Y	2.05
N2H	2.9
N2L	2.58
N2T	2.19
N2S	1.94
N2C	2.13
N2A	2.91
N2I	2.53
N2R	1.26
N2G	2.01
N2W	1.06
E7M	2.21
E7W	1.57
E7K	2.52
E7A	2.85
E7L	2.5
E7R	1.17
E7Q	2.31
E7H	2.2
E7N	2.61
E7D	2.69
E7Y	2.31

Variant	protein stability index
E7C	2.01
E7T	2.53
E7S	2.84
E7F	2.1
E7G	1.9
T4V	1.9
T4G	2.39
T4E	3.26
T4A	2.15
T4K	2.72
T4L	2.47
T4Y	1.23
T4S	2.58
T4P	2.41
T4M	2.07
T4N	2.79
T4D	2.33
T4F	2.12
T4Q	2.54
T4C	1.69
T4R	1.99
T4H	1.83
T4W	1.99
T4I	2.4

Variant	protein stability index
A1K	2.04
A1S	2.49
A1D	2.69
A1H	2.16
A1E	2.72
A1T	2.36
A1G	3.02
A1I	1.91
A1L	2.14
A1N	2.27
A1M	2.65
A1W	2.82
A1Q	1.92
A1R	1.46
A1V	1.34
A1P	2.37
A1Y	2.54
A1C	2.39
A1F	1.81
M8F	2.51
M8C	2.94
M8Q	2.62
M8P	3.11
M8V	2.16

Variant	protein stability index
M8A	3.28
M8R	2.46
M8G	3.19
M8I	2.8
M8S	3.14
M8N	2.72
M8K	2.4
M8L	2.3
M8W	1.51
M8H	3.39
M8T	3.11
M8D	3.37
M8E	3.1
A6C	2.12
A6W	2.05
A6R	2.67
A6V	2.16
A6P	2.51
A6M	2.86
A6D	3.76
A6Y	2.18
A6K	2.78
A6N	2.75
A6Q	2.79

Variant	protein stability index
A6F	3.33
A6S	2.73
A6I	1.85
A6H	2.4
A6L	1.88
A6E	2.77
A6T	1.79
A6G	2.17
E3V	2.13
E3Q	2.53
E3I	2.1
E3G	2.51
E3S	2.27
E3H	2.43
E3K	2.85
E3P	2.26
E3D	2.97
E3M	2.1
E3A	2.18
E3N	2.43
E3W	2.29
E3F	1.96
E3Y	1.94
E3L	1.38

Variant	protein stability index
E3C	2.01
E3T	2.01
L5S	2.96
L5E	3.32
L5T	3.01
L5F	2.96
L5H	3.14
L5C	2.69
L5P	2.73
L5Q	2.86
L5V	2.78
L5I	2.16
L5K	2.16
L5R	2.14
L5Y	2.4
L5A	2.7
L5D	3.62
L5N	3.05
L5W	2.01
L5G	2.58
